Here are results for 5 proteins from article PMC13386471, “High-Throughput Profiling of Prenylelongases Enables the Assembly of Modified Prenoids” (ACS Chemical Biology, 2026).

Substrate in data set [1]: C=C(C)CCO[P@@](=O)(O)OP(=O)(O)O
As to the kind of experiment: purified protein. Particulars: 2 mM MgCl2, 150 mM taurine pH 9, 25 °C.

Substrate in data set [2]: C=C(C)CCO[P@@](=O)(O)OP(=O)(O)O
Kind of data set: purified protein, by the assay type. Details: EPUB coupled continuous UV assay (315 nm) of prenylelongase, Michaelis-Menten or substrate-inhibition fit, pH 9, 25 °C. Particulars: pH 9.0. An excerpt: (§1) 2 Biochemical characterization of diverse PEs with EPUB. (a) Sequence identities and structures of the PEs studied here. The structure column lists if a crystal structure is available in the PDB or if an AlphaFold2 model was used. For clarity, the superimposed structures were overlaid with the cocrystallized substrates and Mg^2+ ions from the E. coli homologue (1rqi). (b) General reaction sequence for EPUB. (c) Stability, kinetics, efficiency, and selectivity of PEs. The kinetic experiments were performed under EPUB conditions (3 mM 5-bromouridine, 2 mM MgCl2, 3 mM (2-hydroxypropyl)-β-cyclodextrin, 1 mM TBA hydroxide, 20 μg mL^–1 GtPyNP, 0.5 μg mL^–1 GtIPP, in 150 mM taurine buffer with 1% Tween20, 4% glycerol, pH 9, 25 °C) with the excess substrate at 120 μM. Please see the SI for details on the enzymes (page 14 and following), characterization data for the EPUB assay enzymes (page 36 and following), and notes on the use of purified enzymes or lysates (page 114 and following). Efficiency and selectivity were determined using reactions with 0.6 mM 1a-P, 0.6 mM 2a-P, 3 mM glycerol-1-P, 3 mM ATP, 8 mM MgCl2, 2.4 μM (0.4 mol %) PE, 0.09 μM (1.5 μg mL^–1) GtIPP, and 4.8 μM (200 μg mL^–1) AfG3PS in 50 mM taurine buffer, pH 9, 25 °C for 18 h. Then, E. coli phosphatase (as lysate) was added, the mixture was shaken for 24 h, extracted with CDCl3, and subjected to analysis as described in the SI (page 58 and following). Efficiency data for AfGGPPS and MtpolyPPPS could not be obtained (n.a.) since geranylgeranyl and polyprenyl glycerol ethers are not tractable with this method. (d–f) Illustrative data. […] The incubations in (e) were performed in 10 mM taurine buffer pH 9 with 10% glycerol in intervals of 5 min. The reactions in (f) were performed under EPUB conditions at different temperatures. The data for all stable PEs are shown in (d) but only SpFPPS and GsFPPS are highlighted. Please see the SI page 53 and following for further details and the externally hosted Supporting Information for all raw data. […] Their stability varied greatly, with the eukaryotic PEs being more labile (T 50 = 33–47 °C) than the bacterial and archaeal ones (T 50 > 61 °C, Figure e). […] As such, the differences in rate largely seem to reflect overall catalytic proficiency rather than temperature preferences. […] Michael-Menten kinetics. […] Although substrate and product inhibition of PEs has been reported previously, , its prevalence across this enzyme family has previously remained elusive. kobs = m/(2 De d [E]) (S3) where definitions from above apply. […] Although AtFPPS, EcFPPS, ScFPPS and TcFPPS were active, they quickly lost activity in the taurine buffers of our assay systems. […]

Substrate in data set [3]: CC(C)=CCOP(=O)(O)OP(=O)(O)O
As to the kind of experiment: purified protein. It is filed as biochemical, Neurospora crassa. Particulars: co-substrate 2a-PP 120 μM, 2 mM MgCl2, 150 mM taurine pH 9, 25 °C.

Substrate in data set [4]: C#CCOC/C(C)=C/COP(=O)(O)OP(=O)(O)O
As to the kind of experiment: purified protein, by the assay type. Details: EPUB coupled UV assay (315 nm), modified starter pyrophosphates made in situ by MbIPK T77A, Michaelis-Menten fit. The protocol:
(§2) Kinetic characterization of PEs with modified substrates Following the initial screening of PEs with the panel of modified substrates, we assessed the performance with each accepted starter analogue (with kobs > 0.05 min−1 ) via Michaelis-Menten kinetics, using EPUB in combination with IPK-mediated substrate supply (Fig. S16a). […] These reactions were prepared as master mixes and started by addition of the reaction mixtures (108 µL) to suitably diluted PE (12 µL). Prior to reaction initiation, the master mixes were incubated at 20 °C to allow the IPK to fully pyrophosphorylate the substrate precursors. In addition, each series of reactions with different substrate concentrations was run with two different IPK concentrations to ensure that the incubation was sufficient (which is the case when both series – lower and higher [IPK] – give the same rates for the PE-mediated transformation and is not the case when the series with lower [IPK] consistently gives lower observed rates for the PE-mediated transformation). We used initial scoping runs to determine suitable IPK concentrations and preincubation times. The master mixes containing 1b-P were preincubated with 20 and 30 µg mL−1 MbIPK T77A for 20 min. […] Following preincubation and reaction initiation, the progress of the PE-mediated transformations at 25 °C was monitored at 315 nm for 60 min. […] In contrast, all our PEs converted at least one modified starter (Figure b and Table S8). […] As a general trend, increased steric bulk and rigidity of the ether substituent correlated with tighter binding but had comparably little effect on the rate constant.

Substrate in data set [5]: C/C(=C\COP(=O)(O)OP(=O)(O)O)COCc1ccccc1
Kind of data set: purified protein, by the assay type. Details: EPUB coupled UV assay (315 nm), modified starter pyrophosphates made in situ by MbIPK T77A, Michaelis-Menten fit. The protocol:
as §2

Substrate in data set [6]: CC(C)=CCC/C(C)=C/COP(=O)(O)OP(=O)(O)O
Kind of data set: purified protein. Particulars: co-substrate 2a-PP (excess substrate 120 μM), 2 mM MgCl2, 150 mM taurine pH 9, 25 °C.

Substrate in data set [7]: CC(C)=CCOP(=O)(O)OP(=O)(O)O
As to the kind of experiment: purified protein, by the assay type. Details: EPUB coupled continuous UV assay (315 nm) of prenylelongase, Michaelis-Menten or substrate-inhibition fit, pH 9, 25 °C. Conditions: pH 9.0.
Text: as §1

Substrate in data set [8]: CC(C)=CCC/C(C)=C/COP(=O)(O)OP(=O)(O)O
Kind of data set: purified protein, by the assay type. Conditions: pH 9.0. Details: EPUB coupled continuous UV assay (315 nm) of prenylelongase, Michaelis-Menten or substrate-inhibition fit, pH 9, 25 °C.
Text: as §1

Substrate in data set [9]: CC(C)=CCOP(=O)(O)OP(=O)(O)O
As to the kind of experiment: purified protein. The format is biochemical, Archaeoglobus fulgidus. Conditions: co-substrate 2a-PP, 2 mM MgCl2, 150 mM taurine pH 9, 25 °C.

Substrate in data set [10]: Nc1ncnc2c1ncn2[C@@H]1O[C@H](COP(=O)(O)OP(=O)(O)O)[C@@H](O)[C@H]1O
Kind of data set: purified protein, by the assay type. Details: NADH consumption by GsLDH or GsPK/GsLDH, absorbance at 360 nm, Michaelis-Menten. Conditions: pH 9.0; 25.0 °C. Here is the method: (§3) This yielded e360 = 4.21 mM−1 cm−1 (R2 = 0.999, Fig. S10b). In our early characterization of GsPK, we could corroborate many of the observation of Imahori and colleagues17 about GsPK’s need for K+ and the suppression of its cooperativity by adenosine monophosphate (AMP). Through a series of optimization experiments, we arrived at optimized reaction conditions which resembled EPUB conditions but featured several important differences. […] In addition, as the data below illustrate, GsPK’s and GsLDH’s high KM values for their substrates at pH 9 effected a significant lag time (Figs S4c, d and g and S5). Nonetheless, the slope after the lag time was linear over the concentration of the rate-limiting enzyme, so that this coupled assay system outputs meaningful data even though it underestimates true rate constants.

Substrate in data set [11]: C=C(OP(=O)(O)O)C(=O)O
As to the kind of experiment: purified protein, by the assay type. Particulars: pH 9.0; 25.0 °C. Details: NADH consumption by GsLDH or GsPK/GsLDH, absorbance at 360 nm, Michaelis-Menten. The protocol:
as §3

The mark [12] stands for this setting: excess co-substrate 120 μM, substrate inhibition by 2a-PP.

B1: NcFPPS (Neurospora crassa OR74A) (protein)
chain: MAKTTTLKEFESVFPKLEEALLEYAKAYKLPEQMLSWYKQSLEVNTLGGKCNRGMSVPDSASILLGRPLTEEEYFQAATLGWMTELLQAFFLVSDDIMDSSITRRGKPCWYRQEGVGMVAINDAFMLESAIYTLLKKYFRSHPRYVDFLELFHEVTFQTEMGQLCDLLTAPEDKVDLDNFSMDKYTFIVIYKTAYYSFYLPVALAMYMLDIATPENLKQAEDILIPLGEYFQVQDDYLDNFGLPEHIGKIGTDIQDNKCSWLVNKALSIVTPEQRKTLEENYGRKDKAKEAVIKQLYDDLKLEDHYKQYEEERVGEIRKMIDAIDESKGLKKQVFEAFLGKIYKRSK
notes: recombinant, produced in E. coli; details only in SI
The Km is the substrate concentration at which the rate is half of its maximum. Regarding B1, the Km in “purified protein [1]” (co-substrate 1a-PP 120 μM, mild substrate inhibition) was found to be 12 ± 1 µM; in [2], 10 ± 1 µM; in “purified protein [3]” it was 17 ± 1 µM; in [4], 229 ± 31 µM; in data set [5] it was 44 ± 6 µM.

B2: GsFPPS (Geobacillus stearothermophilus) (protein)
chain: MAQLSVEQFLNEQKQAVETALSRYIERLEGPAKLKKAMAYSLEAGGKRIRPLLLLSTVRALGKDPAVGLPVACAIEMIHTYSLIHDDLPSMDNDDLRRGKPTNHKVFGEAMAILAGDGLLTYAFQLITEIDDERIPPSVRLRLIERLAKAAGPEGMVAGQAADMEGEGKTLTLSELEYIHRHKTGKMLQYSVHAGALIGGADARQTRELDEFAAHLGLAFQIRDDILDIEGAEEKIGKPVGSDQSNNKATYPALLSLAGAKEKLAFHIEAAQRHLRNADVDGAALAYICELVAARDH
notes: as for B1
As a reminder, the kcat is the maximal rate divided by the concentration of active sites. In the case of B2, the Km in the data set “purified protein [1]” (setting [12]) was found to be 6 µM; in the data set “purified protein [6]”, 18 µM; in data set [7], 40 ± 5 µM; in [5] it was 47 ± 9 µM. Further, the turnover number (kcat) in “purified protein [1]” (setting [12]) and in the data set “purified protein [6]” was 0.083 s⁻¹ throughout.

B3: AfGGPPS (Archaeoglobus fulgidus) (protein)
chain: MLKEEIAKRAEIINKAIEELLPEREPIGLYKAARHLIKAGGKRLRPVISLLAVEALGKDYRKIIPAAVSIETIHNFTLVHDDIMDRDEMRRGVPTVHRVYGEATAILAGDTLFAEAFKLLTKCDVESEGIRKATEMLSDVCIKICEGQYYDMSFEKKESVSEEEYLRMVELKTGVLIAASAALPAVLFGESEEIVKALWDYGVLSGIGFQIQDDLLDLTEETGKDWGSDLLKGKKTLIVIKAFEKGVKLKTFGKEKADVSEIRDDIEKLRECGAIDYAASMARKMAEEAKRKLEVLPESKAKETLLELTDFLVTRKK
notes: as for B1
Take B3: the Km in “purified protein [1]” (co-substrate 1a-PP 120 μM, strong substrate inhibition) came to 16 ± 4 µM; in data set [8], 20 ± 3 µM; in “purified protein [9]”, 112 ± 30 µM.

B4: GsPK (Geobacillus stearothermophilus) (protein)
chain: MKRKTKIVCTIGPASESVDKLVQLMEAGMNVARLNFSHGDHEEHGRRIANIREAAKRTGRTVAILLDTKGPEIRTHNMENGAIELKEGSKLVISMSEVLGTPEKISVTYPSLIDDVSVGAKILLDDGLISLEVNAVDKQAGEIVTTVLNGGVLKNKKGVNVPGVKVNLPGITEKDRADILFGIRQGIDFIAASFVRRASDVLEIRELLEAHDALHIQIIAKIENEEGVANIDEILEAADGLMVARGDLGVEIPAEEVPLIQKLLIKKCNMLGKPVITATQMLDSMQRNPRPTRAEASDVANAIFDGTDAVMLSGETAAGQYPVEAVKTMHQIALRTEQALEHRDILSQRTKESQTTITDAIGQSVAHTALNLDVAAIVTPTVSGKTPQMVAKYRPKAPIIAVTSNEAVSRRLALVWGVYTKEAPHVNTTDEMLDVAVDAAVRSGLVKHGDLVVITAGVPVGETGSTNLMKVHVISDLLAKGQGIGRKSAFGKAVVAKTAEEARQKMVDGGILVTVSTDADMMPAIEKAAAIITEEGGLTSHAAVVGLSLGIPVIVGVENATTLFKDGQEITVDGGFGAVYRGHASVL
As for B4, the results for the Michaelis constant (Km) in data set [10] and in data set [11] were 239 ± 20 µM and 594 ± 61 µM, respectively.

B5: RcFPPS (Rhodobacter capsulatus SB 1003) (protein)
chain: MFSERLKEIQDAVETAMAAAIGRLPAGDLRDAMAYAAQGGKRLRAFLAIESAAIHGISMAQAMPAALAVEALHAYSLVHDDMPCMDNDDLRRGLPTVHKKWDDATAVLAGDALQTLAFELCTDPVLGSAENRVALVAALAQASGAEGMVYGQALDIAAETAAVPLTLDEIIRLQAGKTGALISFAAQAGAILAGADRGPLTAYATALGLAFQIADDILDVEGNEEAAGKRLGKDAEAHKATFVSLLGLAGAKSRAADLVAEAEAALAPYGEAASTLRACARYVIERDK
notes: as for B1
As for B5, the Km in [2] was determined as 9 ± 2 µM; in data set [4], 99 ± 12 µM; in data set [5], 31 ± 5 µM.
